Results taken from US20260256870A1, “SKIN COMPOSITION” (Eaderm Co., Ltd., priority 2019, published 2026).

What was measured:
[1] = test system: human epidermal keratinocytes; assay: Colony formation assay using human epidermal keratinocytes; type: cell-based; settings: Table 1
Excerpt: To test whether COL17A1-mediated SCD maintains clonal proliferation of epidermal stem cell clones, the present inventors used a colony formation assay, which is an in vitro assay said to be the gold standard for assessing the self-renewal ability of epidermal stem cells, including cells in the tail epidermis.

COL17A1 = COL17A1 expression in human epidermal keratinocytes by high content imaging (HCS); type: cell-based; settings: Table 1; human epidermal keratinocytes, 48 hours after addition of reagents, fluorescence intensity per cell
Experimental: The present inventors further searched for substances that induce or maintain the expression of COL17A1. Human epidermal keratinocytes were seeded in 384-well plates, cultured for 48 hours after addition of reagents, immunostained with an anti-COL17A1 antibody and a fluorescently labeled secondary antibody, and then the fluorescence intensity per cell was detected using a high content imaging system (HCS: High Content Screening). In addition to cell counting with DAPI, the expression level of COL17A1 was quantified.

B1: Epidermal Growth Factor (EGF): growth factor (protein, UniProt P01133 23-1207, looked up)
Pro-epidermal growth factor: PQHWSCPEGTLAGNGNSTCVGPAPFLIFSHGNSIFRIDTEGTNYEQLVVDAGVSVIMDFHYNEKRIYWVDLERQLLQRVFLNGSRQERVCNIEKNVSGMAINWINEEVIWSNQQEGIITVTDMKGNNSHILLSALKYPANVAVDPVERFIFWSSEVAGSLYRADLDGVGVKALLETSEKITAVSLDVLDKRLFWIQYNREGSNSLICSCDYDGGSVHISKHPTQHNLFAMSLFGDRIFYSTWKMKTIWIANKHTGKDMVRINLHSSFVPLGELKVVHPLAQPKAEDDTWEPEQKLCKLRKGNCSSTVCGQDLQSHLCMCAEGYALSRDRKYCEDVNECAFWNHGCTLGCKNTPGSYYCTCPVGFVLLPDGKRCHQLVSCPRNVSECSHDCVLTSEGPLCFCPEGSVLERDGKTCSGCSSPDNGGCSQLCVPLSPVSWECDCFPGYDLQLDEKSCAASGPQPFLLFANSQDIRHMHFDGTDYGTLLSQQMGMVYALDHDPVENKIYFAHTALKWIERANMDGSQRERLIEEGVDVPEGLAVDWIGRRFYWTDRGKSLIGRSDLNGKRSKIITKENISQPRGIAVHPMAKRLFWTDTGINPRIESSSLQGLGRLVIASSDLIWPSGITIDFLTDKLYWCDAKQSVIEMANLDGSKRRRLTQNDVGHPFAVAVFEDYVWFSDWAMPSVMRVNKRTGKDRVRLQGSMLKPSSLVVVHPLAKPGADPCLYQNGGCEHICKKRLGTAWCSCREGFMKASDGKTCLALDGHQLLAGGEVDLKNQVTPLDILSKTRVSEDNITESQHMLVAEIMVSDQDDCAPVGCSMYARCISEGEDATCQCLKGFAGDGKLCSDIDECEMGVPVCPPASSKCINTEGGYVCRCSEGYQGDGIHCLDIDECQLGEHSCGENASCTNTEGGYTCMCAGRLSEPGLICPDSTPPPHLREDDHHYSVRNSDSECPLSHDGYCLHDGVCMYIEALDKYACNCVVGYIGERCQYRDLKWWELRHAGHGQQQKVIVVAVCVVVLVMLLLLSLWGAHYYRTQKLLSKNPKNPYEESSRDVRSRRPADTEDGMSSCPQPWFVVIKEHQDLKNGGQPVAGEDGQAADGSMQPTSWRQEPQLCGMGTEQGCWIPVSSDKGSCPQVMERSFHMPSYGTQTLEGGVEKPHSLLSANPLWQQRALDPPHQMELTQ
modifications: Pro-epidermal growth factor
Colony area (control ratio) [1]: ⊚⊚ (Two double circles (⊚⊚) in the control ratio of the colony number or colony area indicates an increase of 1.2-fold or more)
Colony number (control ratio) [1]: ⊚⊚ (Two double circles (⊚⊚) in the control ratio of the colony number or colony area indicates an increase of 1.2-fold or more)
COL17A1 expression level (control ratio) (COL17A1): ⊚ (one double circle (⊚) represents a 1.2-fold or greater increase)
